Reference: doi:10.1101/2020.11.13.381350 (bioRxiv, 2020)

Molecular target: the molecule itself
Test: SEC

B1: EGFP-WT-mVP40 (natural protein)
chain: MASSSNYNTYMQYLNPPPYADHGANQLIPADQLSNQQGITPNYVGDLNLDDQFKGNVCHAFTLEAIIDISAYNERTVKGVPAWLPLGIMSNFEYPLAHTVAALLTGSYTITQFTHNGQKFVRVNRLGTGIPAHPLRMLREGNQAFIQNMVIPRNFSTNQFTYNLTNLVLSVQKLPDDAWRPSKDKLIGNTMHPAVSIHPNLPPIVLPTVKKQAYRQHKNPNNGPLLAISGILHQLRVEKVPEKTSLFRISLPADMFSVKEGMMKKRGENSPVVYFQAPENFPLNGFNNRQVVLAYANPTLSAV
stoichiometry N: 6
